Measured values as given in patent US9428783B2, “DNA encoding dipeptide-synthesizing enzyme (variants), bacterium belonging to the genus Escherichia, and methods for producing dipeptides using thereof” (Ajinomoto Co., Inc., priority 2012, dated 2016).

B1: DES: pyridoxal-phosphate dependent enzyme from Desmospora sp. 8437, SEQ ID NO: 6; tested as MBP fused His6-tagged DES (protein)
chain: MKKKLLFVEGNTTGTGILALEKARKLGYEPVFLTQEASRYDGLPEAKCRVHVTVTDSIHELKRCVSQEKAEAVAGILTTSDYYLEISAKLVQELGLTGNSPQAIHLCRNKALYREKLRSKSVPQPNFHIIRSMEDLRETRESVPLPCLVKPADDSGSNNVRLCFSWGEVEQLTSKILKIERNARGQKTSQTVLLEEYIEGPEYSVEMFSWQGKSTCIGITEKQLTGYPYFVESGHVFPAVLPTDVQQEIEKTVKQSLEAVHFQFGASHSEVKWTPNGCVMIETNARLAGGMIPELVRHSTGVDLIEQQILCAAGVAPHWKQVVPTGCSGIHFIVAAEAGRLSSVDNLEAVRKLPGVEEMMVKAQVGQAVQPPKNFSDRLGHVIVSGKSYEEVVERLHKISNMISLKIS
modifications: MBP fusion, His6 tag; Desmospora sp. 8437
B2: BBR47_51900: L-amino acid α-ligase (hypothetical protein) from Brevibacillus brevis NBRC 100599, SEQ ID NO: 2 (protein)
chain: MNKHFLFVEANTTGTGMLAMKKARKLGFTPVFFTEKPERYHGLNELECHVVVTDTNSQAELTDSVAQVSKEGREIAGIMSTSDYYLESVAKLARKFGWISNSLEAIEACRNKAIFREKLQRHQVSQPTFLAISSMEQLLEARSSISLPCVVKPADDSGSNNVRLCFSWDEVEHMAAEILAIKYNARGQETARTVLLEQYAEGPEFSVETFSWQGQCFVIGITQKRLTGYPFFVEAGHIFPAPLSVEEKQEIERTVERALAAVKYQFGAAHTEVKWTSAGCVVIEVNARLAGGMIPELVRRSTGIDLLLQQIRCAAGLEPELSQTIEEQRCAGIHFLVSESQGTFGGIKGMDTVRNLPGIAEVAIHAKIGQNVQPPQNFSHRLGYVIVEGKHYSETAELIEQVKDSLSVQVGQQLESGV
modifications: Brevibacillus brevis NBRC 100599

How the values were obtained:
Assay type in all cases: biochemical
[1] = Asp-Phe synthesizing activity of MBP fused His6-tagged DES; details: 160 μg DES, 100 mM L-Asp, 100 mM L-Phe, 10 mM ATP, pH 9.0, 37° C., 15 hours
Method: Dipeptides synthesized by MBP fused His6-tagged DES were determined using HPLC analysis of reaction mixture of total volume of 400 μL, which contained:
Reactions were carried out at 37° C. for 15 hours. Then the reaction mixture, into which 10 μl of 1 M EDTA, pH9.0 was added to stop the enzymatic reaction, was subjected to HPLC analysis. The conditions were as described in Example 4. As a result, DES catalyzes formation of 0.30 mM Asp-Phe.

[2] = LC-QTOF/MS/MS determination of dipeptides synthesized; details: reaction mixtures of Example 4
Text: Samples of reaction mixtures and standard solutions obtained as described in Example 4 were subjected to LC-QTOF/MS/MS analysis.
The conditions were as follows:
Equipment: LC (Agilent1200SL), MS (Micromass Q-TOF Premier)
Column: Develosil C30 2.0×250 mm, 3 μm (Nomura Chemical).
Buffers: • A: H2O (0.025% Formic acid), • B: CH3CN (0.025% Formic acid).

[3] = HPLC determination of dipeptides synthesized by the enzymes; details: 160 μg enzyme, 10 mM substrates, 10 mM ATP, pH 9.0, 32° C., 15 hours
Method: Dipeptides synthesized by BBR47_51900 and Staur_4851 were determined using HPLC analysis of reaction mixtures of total volume of 400 μL, which contained:
Reactions were carried out at 32° C. for 15 hours. Then […] of reaction mixture was filtered through the Amicon Ultra-0.5 mL, 3K Centrifugal Filters (Millipore, #UFC500396) and subjected to HPLC analysis.
The conditions were as follows: • Equipment: HITACHI L-2000 series. • Column: Inertsil ODS-3 4.6×250 mm, […] (GL Sciences Inc.). • Temperature: 40° C. • Buffers:
A (for mixture L-Asp/L-Val and L-Glu/L-Val): 0.1 M KH2PO4 (pH 2.2)+5 mM octanesulfonate, sodium salt: CH3CN as 4:1 (v/v),
B (for mixture L-Asp/L-Phe): 0.1 M KH2PO4 (pH 2.2)+5 mM octanesulfonate, sodium salt: CH3CN as 7:3 (v/v),
C (for mixture L-Asp/L-PheOMe, L-Asp/L-Trp, and L-Val/L-Val): 0.1 M KH2PO4 (pH 2.2)+5 mM octanesulfonate, sodium salt:CH3CN as 3:2 (v/v),
D (for mixture L-Phe/L-Phe): 0.1 M KH2PO4 (pH 2.2)+5 mM octanesulfonate, sodium salt: CH3CN as 1:1 (v/v). • Gradient profile: isocratic. • Flow rate: 1.5 mL/min. • Injection volume: 10 μL. • Detection: UV 210 nm.
Solution of αGlu-Val, γGlu-Val, αAsp-Val (10 mM each) and αAsp-Phe, βAsp-Phe (5 mM each) were prepared for HPLC analysis. The concentration of a dipeptide formed was determined using corresponding calibration curves. Each solution with standard sample was diluted to 50-folds or 100-folds for LC-QTOF/MS/MS analysis (Example 5).

[4] = Enzymatic production of Asp-Phe using ATP regeneration system; details: 0.15 U enzyme, 100 mM L-AspNa, 100 mM L-Phe, 37° C.
Method: The product yield of Asp-Phe was studied in the reaction mixture of BBR47_51900 and Staur_4851 containing phosphoenolpyruvate and pyruvate kinase for regeneration of ATP in order to prevent highly concentrated ATP from inhibiting the enzyme reaction. The composition of the reaction mixture of total volume of 1 ml was as follows.
Reactions were carried out at 37° C. for 1-48 hours. 100 μL out of the 1 mL reaction mixture was sampled at each reaction time. Each reaction mixture, into which 10 μL of 1 M EDTA (pH9.0) was added to stop the reaction, was subjected to HPLC analysis. The condition was as described in Example 4. As a result, BBR47_51900 and Staur_4851 could produce Asp-Phe in the ATP regeneration system (Table 9).

[5] = Preliminary analysis of substrate specificity by TLC; details: 4 μg enzyme, 10 mM each amino acid, 10 mM ATP, pH 8.0, 32° C., 15 hours
Text: The substrate specificity of BBR47_51900 and Staur_4851 was studied in the reaction mixture containing the enzyme and canonical L-amino acids such as L-alanine, L-arginine, L-asparagine, L-aspartic acid, L-cysteine, glycine, L-glutamic acid, L-glutamine, L-histidine, L-isoleucine, L-leucine, L-lysine, L-methionine, L-phenylalanine, L-proline, L-serine, L-threonine, L-tryptophan, L-tyrosine, and L-valine, or salts thereof, of the same or two different kinds. The composition of the reaction mixture of total volume of 50 μL was as follows unless otherwise noted:
Reactions were carried out at 32° C. for 15 hours. 1-2 μL of reaction mixture was subjected to thin layer chromatography (TLC) analysis using as mobile phase the mixture of 2-propanol:acetone:250 mM ammonia:H2O as 100:100:12:28. […] Detection was performed at 540 nm. The new spots on TLC-plates were detected after developing the reaction mixtures, which contained: […]

| Molecule | Asp-Phe formed [1] | Dipeptides whose formation is catalyzed (LC-QTOF/MS/MS) [2] | Dipeptides (mM) Asp-Phe [3] | Dipeptides (mM) Asp-PheOMe [3] | Dipeptides (mM) Asp-Trp [3] | Dipeptides (mM) Asp-Val [3] | Dipeptides (mM) Glu-Val [3] | Asp-Phe ([4]; 1 hr) | Asp-Phe ([4]; 2 hr) | Asp-Phe ([4]; 4 hr) | Asp-Phe ([4]; 8 hr) | Asp-Phe ([4]; 24 hr) | Asp-Phe ([4]; 48 hr) | L-amino acid pairs giving new spots on TLC-plates (ligation) [5] |
| --- | --- | --- | --- | --- | --- | --- | --- | --- | --- | --- | --- | --- | --- | --- |
| B1 | 0.30 mM |  |  |  |  |  |  |  |  |  |  |  |  |  |
| B2 |  | αAsp-Phe, αAsp-Val, and αGlu-Val | 1.22 mM | 0.03 mM | 0.13 mM | 3.9 mM | 1.48 mM | 7 mM | 13 mM | 24 mM | 40 mM | 68 mM | 74 mM | L-Glu/L-Glu, or L-Glu/L-Asp, or L-Glu/L-Val, or L-Glu/L-Ile, or L-Asp/L-Ile, or L-Asp/L-Val |
